From paper PMC2839002 (Chromosoma, 2009)
Positions count from the first letter of the chain named. Names may count otherwise.

B1: GST-C214 C6D (domain or fragment, human, UniProt P38432 362-576, looked up)
chain: AGAAGWRRSGSNGGGQAPGASPSVSLPASLGRGWGREENLFSWKGAKGRGMRGRGRGRGHPVSCVVNRSTDNQRQQQLNDVVKNSSTIIQNPVETPKKDYSLLPLLAAAPQVGEKIAFKLLELTSSYSPDVSDYKEGRILSHNPETQQVDIEILSSLPALREPGKFDLVYHNENGAEVVEYAVTQESKITVFWKELIDPRLIIEDPDNEDDEEPA
B2: GST-C214 S489D + DDE (domain or fragment, human, UniProt P38432 362-576, looked up)
chain: B1 chain with S128D, D205S, D207S, E209T
B3: GST-C214 DDE (domain or fragment, human, UniProt P38432 362-576, looked up)
chain: B1 chain with D205S, D207S, E209T
B4: GST-coilin DDE (natural protein)
chain: MAASETVRLRLQFDYPPPATPHCTAFWLLVDLNRCRVVTDLISLIRQRFGFSSGAFLGLYLEGGLLPPAESARLVRDNDCLRVKLEERGVAENSVVISNGDINLSLRKAKKRAFQLEEGEETEPDCKYSKKHWKSRENNNNNEKVLDLEPKAVTDQTVSKKNKRKNKATCGTVGDDNEEAKRKSPKKKEKCEYKKKAKNPKSPKVQAVKDWANQRCSSPKGSARNSLVKAKRKGSVSVCSKESPSSSSESESCDESISDGPSKVTLEARNSSEKLPTELSKEEPSTKNTTADKLAIKLGFSLTPSKGKTSGTTSSSSDSSAESDDQCLMSSSTPECAAGFLKTVGLFAGRGRPGPGLSSQTAGAAGWRRSGSNGGGQAPGASPSVSLPASLGRGWGREENLFSWKGAKGRGMRGRGRGRGHPVSCVVNRSTDNQRQQQLNDVVKNSSTIIQNPVETPKKDYSLLPLLAAAPQVGEKIAFKLLELTSSYSPDVSDYKEGRILSHNPETQQVDIEILSSLPALREPGKFDLVYHNENGAEVVEYAVTQESKITVFWKELIDPRLIIESPSNTDDEEPA

Target: His-T7-SMN (UniProt Q16637 1-294)
Test: pull-down

Sequence of His-T7-SMN (Q16637 whole entry): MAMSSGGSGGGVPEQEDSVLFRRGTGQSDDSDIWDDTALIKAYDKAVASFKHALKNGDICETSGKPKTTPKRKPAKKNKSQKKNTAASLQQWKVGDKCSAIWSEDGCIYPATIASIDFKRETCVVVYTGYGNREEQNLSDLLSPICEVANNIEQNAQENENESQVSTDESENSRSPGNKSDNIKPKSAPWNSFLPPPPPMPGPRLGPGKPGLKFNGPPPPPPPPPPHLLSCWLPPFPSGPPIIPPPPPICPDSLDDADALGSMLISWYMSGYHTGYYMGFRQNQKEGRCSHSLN

| Binder | binding result |
| --- | --- |
| B1 | binds |
| B2 | binds |
| B3 | binds |

Target: His-T7-SmB′ (UniProt P14678 1-240)
Test: pull-down

| Binder | binding result |
| --- | --- |
| B4 | binds |
| B1 | binds |
| B2 | binds |
| B3 | binds |
